The values that follow come from article PMC5638086, “Assessment of the protein interaction between coagulation factor XII and corn trypsin inhibitor by molecular docking and biochemical validation” (Journal of Thrombosis and Haemostasis, 2017).

The target of data set [1] is Full length activated FXIIa (α‐FXIIa) (UniProt P00748).
Target sequence in this assay (P00748 20-615): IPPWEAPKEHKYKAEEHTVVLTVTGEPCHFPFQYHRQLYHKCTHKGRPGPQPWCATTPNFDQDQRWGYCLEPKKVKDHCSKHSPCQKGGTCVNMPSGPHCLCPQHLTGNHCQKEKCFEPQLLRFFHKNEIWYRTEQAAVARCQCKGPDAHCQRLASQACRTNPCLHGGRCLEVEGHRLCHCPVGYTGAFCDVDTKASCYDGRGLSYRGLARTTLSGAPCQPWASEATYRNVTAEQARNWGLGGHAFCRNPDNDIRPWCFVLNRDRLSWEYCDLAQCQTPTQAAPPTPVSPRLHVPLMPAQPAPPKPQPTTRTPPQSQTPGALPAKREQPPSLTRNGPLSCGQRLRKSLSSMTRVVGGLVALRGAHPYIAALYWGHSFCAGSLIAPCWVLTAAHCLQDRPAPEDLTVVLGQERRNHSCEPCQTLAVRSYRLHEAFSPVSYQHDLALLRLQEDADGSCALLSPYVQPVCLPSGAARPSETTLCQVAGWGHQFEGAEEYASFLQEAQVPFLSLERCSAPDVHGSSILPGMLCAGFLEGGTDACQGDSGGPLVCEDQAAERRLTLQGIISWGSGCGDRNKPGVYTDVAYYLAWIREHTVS
In the next data set the test system is FVIIa. Conditions: cited from earlier work.
In data set [2] the target is Full length activated FXIIa (α‐FXIIa) (UniProt P00748). This is another data set of the same source.
A further data set concerns FIXa. To be noted: cited from earlier work. An excerpt:
(§1) The canonical docking pose that we observed for FXIIa–CTI is similar to the trypsin–CTI and HGFA–CTI complexes predicted by CLUSPRO, albeit that there are fewer interactions overall for trypsin and HGFA, owing to Asp60A (H1 pocket) being absent in these proteases.

The next data set relates to kallikrein. To be noted: cited from earlier work.
Description: as §1

The target in data set [3] is T1, α‐FXIIa (Homo sapiens, UniProt P00748).
T1 construct: purchased Enzyme Research Laboratories (Swansea, UK)
T1 sequence (P00748 373-615 limits assumed): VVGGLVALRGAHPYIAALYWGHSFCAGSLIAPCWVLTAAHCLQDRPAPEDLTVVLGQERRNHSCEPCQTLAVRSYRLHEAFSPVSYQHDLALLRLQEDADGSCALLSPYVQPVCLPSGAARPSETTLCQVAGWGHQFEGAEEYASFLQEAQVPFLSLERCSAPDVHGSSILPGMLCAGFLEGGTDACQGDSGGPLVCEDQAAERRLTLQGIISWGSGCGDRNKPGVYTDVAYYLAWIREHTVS
T1 sequence (P00748 20-372 partner limits assumed): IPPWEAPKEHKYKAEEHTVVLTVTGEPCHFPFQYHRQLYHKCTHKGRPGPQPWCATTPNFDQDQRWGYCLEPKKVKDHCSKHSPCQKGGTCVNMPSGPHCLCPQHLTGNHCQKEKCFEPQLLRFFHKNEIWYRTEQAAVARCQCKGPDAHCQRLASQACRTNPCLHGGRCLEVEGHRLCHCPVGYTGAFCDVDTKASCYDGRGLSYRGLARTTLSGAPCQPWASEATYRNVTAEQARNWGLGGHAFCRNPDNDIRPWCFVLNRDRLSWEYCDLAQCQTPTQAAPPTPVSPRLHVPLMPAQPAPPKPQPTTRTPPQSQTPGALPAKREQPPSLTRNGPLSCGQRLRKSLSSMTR
Description: α‐FXIIa enzymatic assay (S‐2302 chromogenic substrate cleavage, pNA release). The format is biochemical. Conditions: CTI variant proteins 10^−8 M to 10^−5 M, 200 μM S‐2302, 10 nM α‐FXIIa, 33 °C, initial rate of first 30 min, A405; SE of the fit, n = 3–5 independent experiments; SEM. As to the method:
(§2) The enzymatic activity of α‐FXIIa was measured by monitoring the amount of pNA chromophore released from substrate H‐D‐Pro‐Phe‐Arg‐pNA (S‐2302). Assays were performed in a 100‐μL volume at 33 °C in 96‐well plates in a Perkin Elmer (Seer Green, UK) Envision plate reader, and pNA release was followed over a period of 6 h by reading the absorbance at 405 nm. Absorbance values were converted to pNA concentrations by comparison with a standard curve obtained under exactly the same instrument conditions. All absorbance values were within the linear measurement range of the instrument. Initial rates were calculated on the basis of the first 30 min of incubation. To assess the K M, concentrations of substrate peptide between 0.1 mM and 0.6 mM were incubated with 10 nM α‐FXIIa, enzymatic activity was measured as described above, and data were analyzed by non‐linear regression with the Michaelis–Menten algorithm (GRAPHPAD PRISM, version 6.04). To assess the inhibitory mechanism of CTI, 30 nM CTI was incubated with these same concentrations of substrate peptide, the reaction was initiated by the addition of 10 nM α‐FXIIa, enzymatic activity was measured as described above, and data were analyzed by non‐linear regression with the Michaelis–Menten algorithm (GRAPHPAD PRISM, version 6.04) and by linear regression after Lineweaver–Burk transformation. To assay inhibitors, concentrations of CTI variant proteins between 10^−8 M and 10^−5 M or concentrations of peptides between 10^−6 M and 10^−3 M were incubated with 200 μM substrate peptide, the reaction was initiated by addition of 10 nM α‐FXIIa, enzymatic activity was measured as described above, and IC50 values were determined by non‐linear regression analysis (GRAPHPAD PRISM, version 6.04) using the log[inhibitor] versus response – variable slope algorithm with a bottom constraint.

Another data set concerns FXIa. To be noted: previous reports; cited from earlier work.
Data set [4] has as its target T1, α‐FXIIa. Description: Kinetic analysis of the CTI inhibitory mechanism (Michaelis–Menten / Lineweaver–Burk, S‐2302). The format is biochemical. To be noted: 0.1 to 0.6 mM substrate peptide, 10 nM α‐FXIIa. As to the method:
as §2
Figure S3: analysis of CTI inhibitory mechanism
0.1 to 0.6 mM of substrate peptide was incubated without (open symbols) or with 30 nM CTI (closed symbols), after which 10 nM α -FXIIa (equalling to 1 pmol of enzyme) was added and enzyme activity was measured as described in the method section. Data were analysed by non-linear regression (top left panel) and linear regression after Lineweaver Burk […]

Data set [5] addresses Full length activated FXIIa (α‐FXIIa) (UniProt P00748). This is another data set of the same source.
A further data set relates to thrombin. To be noted: previous reports; cited from earlier work.

Like-named read-outs stand apart in the source and are kept apart here.

In data set [1], RWYVTSRTAGIGPRLPWPELKR [CTI(21–42) synthetic peptide] showed an IC50 of inhibition of α‐FXIIa enzymatic activity (S‐2302 cleavage) of 200 µM and a pIC50 of inhibition of α‐FXIIa enzymatic activity (S‐2302 cleavage) of 3.7.

B1: commercial corn trypsin inhibitor (CTI) (natural protein)
chain: SAGTSCVPGWAIPHNPLPSCRWYVTSRTCGIGPRLPWPELKRRCCRELADIPAYCRCTALSILMDGAIPPGPDAQLEGRLEDLPGCPREVQRGFAATLVTEAECNLATIS
Take B1: the “Inhibition of FVIIa, in words” value with FVIIa was “does not inhibit”. Besides, the pIC50 of inhibition of α‐FXIIa enzymatic activity (S‐2302 cleavage) in data set [2] amounted to 6.95. Moreover, in the data set with FIXa, the “Inhibition of FIXa, in words” value is reported as “does not inhibit”. In addition, the “Inhibition of kallikrein, in words” value in the data set on kallikrein was “does not inhibit”. In addition, the “pIC50 ± SE” value with α‐FXIIa [3] came to 6.97 ± 0.04. The “Inhibition of FXIa, in words” value in the data set on FXIa is on record as “weakly inhibits”. Besides, the Inhibitory mechanism result with α‐FXIIa [4] (30 nM CTI) is “competitive inhibitory mechanism”. The Ki with α‐FXIIa [4] (30 nM CTI, Fig. S3) turned out to be 29 ± 4 nM. The kcat with α‐FXIIa [4] (in the presence of 30 nM CTI, Fig. S3) came to 15 ± 2. Moreover, the Michaelis constant (Km) with α‐FXIIa [4] (in the presence of 30 nM CTI, Fig. S3, read-out: Km app) is 301 ± 72 µM. Also, in data set [5], the IC50 of inhibition of α‐FXIIa enzymatic activity (S‐2302 cleavage) was 110 nM and the pIC50 of inhibition of α‐FXIIa enzymatic activity (S‐2302 cleavage) is 6.97. The “Inhibition of thrombin, in words” value in the data set with thrombin is listed as “does not inhibit”.

Turning to CRWYVTSRTAGIGPRLPWPELKRRC [CTI(20–44) synthetic peptide], in data set [1], the IC50 of inhibition of α‐FXIIa enzymatic activity (S‐2302 cleavage) stood at 290 µM and the pIC50 of inhibition of α‐FXIIa enzymatic activity (S‐2302 cleavage) was 3.54.

In data set [1], RWYVTSRTAGIGPRLPWPELKRR [CTI(21–43) synthetic peptide] showed an IC50 of inhibition of α‐FXIIa enzymatic activity (S‐2302 cleavage) of 460 µM and a pIC50 of inhibition of α‐FXIIa enzymatic activity (S‐2302 cleavage) of 3.34.

YVTSRTAGIGPRLPWPELKRR [CTI(23–43) synthetic peptide]: in data set [1], the IC50 of inhibition of α‐FXIIa enzymatic activity (S‐2302 cleavage) stood at 1100 µM and the pIC50 of inhibition of α‐FXIIa enzymatic activity (S‐2302 cleavage) came to 2.94.

B2: R27A/R42A: rec‐CTI double substitution R27A/R42A (protein)
chain: SAGTSCVPGWAIPHNPLPSCRWYVTSATCGIGPRLPWPELKARCCRELADIPAYCRCTALSILMDGAIPPGPDAQLEGRLEDLPGCPREVQRGFAATLVTEAECNLATISGVAECPWILGGGTMPSK
modifications: assayed as His6-GST fusion (tag omitted); disulfides
As for B2, the “pIC50 ± SE” value with α‐FXIIa [3] was 6.80 ± 0.05.

B3: R27A: rec‐CTI variant, alanine substitution of Arg27 (protein)
chain: SAGTSCVPGWAIPHNPLPSCRWYVTSATCGIGPRLPWPELKRRCCRELADIPAYCRCTALSILMDGAIPPGPDAQLEGRLEDLPGCPREVQRGFAATLVTEAECNLATISGVAECPWILGGGTMPSK
modifications: assayed as His6-GST fusion (tag omitted); disulfides
As to B3, the “pIC50 ± SE” value in the data set with α‐FXIIa [3] was found to be 6.78 ± 0.04.

B4: W22A: rec‐CTI variant, alanine substitution of Trp22 (protein)
chain: SAGTSCVPGWAIPHNPLPSCRAYVTSRTCGIGPRLPWPELKRRCCRELADIPAYCRCTALSILMDGAIPPGPDAQLEGRLEDLPGCPREVQRGFAATLVTEAECNLATISGVAECPWILGGGTMPSK
modifications: assayed as His6-GST fusion (tag omitted); disulfides
Turning to B4, the “pIC50 ± SE” value with α‐FXIIa [3] was 4.72 ± 0.24.

B5: G32W: rec‐CTI variant, replacement of Gly32 with tryptophan (protein)
chain: SAGTSCVPGWAIPHNPLPSCRWYVTSRTCGIWPRLPWPELKRRCCRELADIPAYCRCTALSILMDGAIPPGPDAQLEGRLEDLPGCPREVQRGFAATLVTEAECNLATISGVAECPWILGGGTMPSK
modifications: assayed as His6-GST fusion (tag omitted); disulfides
For B5, the “pIC50 ± SE” value in the data set with α‐FXIIa [3] is 4.89 ± 0.06.

B6: G30W: rec‐CTI variant, replacement of Gly30 with a tryptophan (protein)
chain: SAGTSCVPGWAIPHNPLPSCRWYVTSRTCWIGPRLPWPELKRRCCRELADIPAYCRCTALSILMDGAIPPGPDAQLEGRLEDLPGCPREVQRGFAATLVTEAECNLATISGVAECPWILGGGTMPSK
modifications: assayed as His6-GST fusion (tag omitted); disulfides
Consider B6, for which the “pIC50 ± SE” value in the data set with α‐FXIIa [3] came out at 6.32 ± 0.06.

As a reminder, the Ki is the equilibrium dissociation constant of an inhibitor or competing ligand from its target. Low readings indicate higher affinity, high ones lower affinity. In general, Km refers to the substrate concentration at which the rate is half of its maximum.
